Laboratory results taken from article PMC8425125, “Regulation of wound ethylene biosynthesis by NAC transcription factors in kiwifruit”.

Key:
Assay in all cases: EMSA; ~2.5 ug protein, 0.9 pmol probe in 20 uL; 5 mM HEPES-KOH pH 7.6, 30 mM NaCl, 0.2 mM DTT, 0.02 mM EDTA, 0.8 ug salmon sperm DNA, 0.2 ug poly(dI-dC); room temperature 15 min; 4% native PAGE, 0.5x TBE (printed 0.5% w/v), 5% glycerol, pH 8.3, 4 C
Conditions in all cases: protein: recombinant; tags: N-terminal MBP (pMAL-c2x); chain copies: 2; label: 3'-biotin; blunt
[1] = target: AcNAC1 DNA-binding domain (Actinidia chinensis, UniProt A0A075EB52 1-182)
Chain of AcNAC1 DNA-binding domain (A0A075EB52 entry or part of it): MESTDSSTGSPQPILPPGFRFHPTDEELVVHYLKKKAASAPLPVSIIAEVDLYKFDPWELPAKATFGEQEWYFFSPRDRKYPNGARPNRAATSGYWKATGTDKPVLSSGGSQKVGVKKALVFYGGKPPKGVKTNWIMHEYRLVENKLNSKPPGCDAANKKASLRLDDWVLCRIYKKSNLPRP

[2] = target: AcNAC4 DNA-binding domain (Actinidia chinensis, UniProt A0A075ECR2 1-182)
Chain of AcNAC4 DNA-binding domain (A0A075ECR2 entry or part of it): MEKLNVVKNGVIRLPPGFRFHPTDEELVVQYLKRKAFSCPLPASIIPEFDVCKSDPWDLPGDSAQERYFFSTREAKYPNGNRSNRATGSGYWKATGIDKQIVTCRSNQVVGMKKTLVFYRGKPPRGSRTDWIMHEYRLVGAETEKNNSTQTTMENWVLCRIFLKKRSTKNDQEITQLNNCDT

[3] = target: AcNAC3 DNA-binding domain (Actinidia chinensis, UniProt A0A075EC91 1-182)
Chain of AcNAC3 DNA-binding domain (A0A075EC91 entry or part of it): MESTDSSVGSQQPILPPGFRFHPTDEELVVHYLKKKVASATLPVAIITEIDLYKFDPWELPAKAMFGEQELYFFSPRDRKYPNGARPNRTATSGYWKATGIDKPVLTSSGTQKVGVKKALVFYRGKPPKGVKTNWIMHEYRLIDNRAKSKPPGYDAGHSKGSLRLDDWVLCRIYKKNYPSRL

[4] = target: AcNAC2 DNA-binding domain (Actinidia chinensis, UniProt A0A075EAR8 1-182)
Chain of AcNAC2 DNA-binding domain (A0A075EAR8 entry or part of it): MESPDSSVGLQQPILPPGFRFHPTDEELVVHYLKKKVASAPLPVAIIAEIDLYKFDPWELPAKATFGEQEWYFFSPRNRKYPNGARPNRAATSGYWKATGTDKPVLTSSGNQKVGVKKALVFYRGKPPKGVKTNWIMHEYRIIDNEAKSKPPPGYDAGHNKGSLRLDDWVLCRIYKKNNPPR

B1: AcACS1 probe N1MUT (Mut) (dsDNA)
DNA 1: CATCGATCCATCTGTCAACCACATAAC
DNA 2: GTTATGTGGTTGACAGATGGATCGATG
binding result [1]: no binding | binding result [2]: no binding | binding result [3]: no binding | binding result [4]: no binding

B2: AcACS1 probe N1 (Wt) (dsDNA)
DNA 1: CATTATACGTATAGTCAACCACATAAC
DNA 2: GTTATGTGGTTGACTATACGTATAATG
binding result [1]: binds | binding result [2]: binds | binding result [3]: binds | binding result [4]: binds
